Assay results reported in patent US20030013152A1 (University of Texas, published 2003).

T1: ALF/γ: recombinant human ALF (p69) together with recombinant rat TFIIAγ (p12) (human; rat, UniProt O08950 1-109)
T1 construct: also called ALF (p69) and TFIIAγ (p12)
T1 sequence 1: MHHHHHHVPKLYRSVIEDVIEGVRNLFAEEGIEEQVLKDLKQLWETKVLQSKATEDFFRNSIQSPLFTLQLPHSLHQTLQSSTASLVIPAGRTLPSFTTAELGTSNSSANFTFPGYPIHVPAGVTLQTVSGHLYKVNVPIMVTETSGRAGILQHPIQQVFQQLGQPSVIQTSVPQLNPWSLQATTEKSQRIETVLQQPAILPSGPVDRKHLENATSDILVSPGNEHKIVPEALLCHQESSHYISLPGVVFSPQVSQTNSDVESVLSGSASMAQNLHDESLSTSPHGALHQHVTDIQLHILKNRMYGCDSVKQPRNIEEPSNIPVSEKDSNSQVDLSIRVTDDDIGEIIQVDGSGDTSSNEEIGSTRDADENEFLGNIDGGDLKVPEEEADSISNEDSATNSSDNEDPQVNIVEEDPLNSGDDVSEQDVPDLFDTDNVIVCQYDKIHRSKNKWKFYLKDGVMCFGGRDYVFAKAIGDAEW
T1 sequence 2: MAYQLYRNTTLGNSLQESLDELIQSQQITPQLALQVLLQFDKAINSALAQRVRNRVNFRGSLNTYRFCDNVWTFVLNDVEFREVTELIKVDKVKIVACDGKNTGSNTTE

T2: TFIIAα/β/γ: recombinant rat TFIIAα/β (p55) together with recombinant rat TFIIAγ (p12) (rat, UniProt O08949 1-377; O08950 1-109)
T2 construct: also called TFIIAα/β (p55) and TFIIAγ (p12)
T2 sequence (looked up) 1: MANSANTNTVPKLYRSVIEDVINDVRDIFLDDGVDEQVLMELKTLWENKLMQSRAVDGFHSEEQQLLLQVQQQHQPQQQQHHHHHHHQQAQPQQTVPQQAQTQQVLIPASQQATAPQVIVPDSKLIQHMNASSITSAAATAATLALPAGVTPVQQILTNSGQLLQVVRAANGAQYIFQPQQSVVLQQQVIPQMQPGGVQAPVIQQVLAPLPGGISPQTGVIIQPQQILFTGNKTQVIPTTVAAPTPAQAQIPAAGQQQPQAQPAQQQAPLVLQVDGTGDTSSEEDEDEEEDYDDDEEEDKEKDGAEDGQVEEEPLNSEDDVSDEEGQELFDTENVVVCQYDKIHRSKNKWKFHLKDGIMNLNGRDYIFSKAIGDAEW
T2 sequence (looked up) 2: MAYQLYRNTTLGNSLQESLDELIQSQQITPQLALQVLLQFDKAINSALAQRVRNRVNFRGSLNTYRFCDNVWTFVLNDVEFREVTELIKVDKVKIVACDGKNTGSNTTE

T3: recombinant histidine-tagged human ALF (TFIIAα/β-like factor) polypeptide, residues Val7 to Trp478 (human, UniProt Q9UNN4 7-478)
T3 construct: 479 amino acid polypeptide expressed in E. coli from pRSET-ALF, purified under denaturing conditions on Ni-NTA and renatured; migrates at 69 kD; also called p69; p69 (ALF)
T3 sequence: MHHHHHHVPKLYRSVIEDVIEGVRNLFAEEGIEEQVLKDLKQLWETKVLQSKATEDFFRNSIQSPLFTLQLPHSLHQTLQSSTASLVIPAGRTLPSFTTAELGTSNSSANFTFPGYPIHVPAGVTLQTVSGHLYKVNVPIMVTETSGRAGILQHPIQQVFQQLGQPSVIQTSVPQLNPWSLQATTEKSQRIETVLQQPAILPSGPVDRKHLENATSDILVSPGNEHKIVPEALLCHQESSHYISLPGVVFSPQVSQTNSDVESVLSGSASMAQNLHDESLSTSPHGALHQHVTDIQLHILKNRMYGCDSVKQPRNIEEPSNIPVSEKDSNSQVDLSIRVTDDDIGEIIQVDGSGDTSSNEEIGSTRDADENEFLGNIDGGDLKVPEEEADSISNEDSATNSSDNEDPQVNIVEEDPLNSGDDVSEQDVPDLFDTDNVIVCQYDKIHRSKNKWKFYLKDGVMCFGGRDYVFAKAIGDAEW

T4: recombinant rat TFIIAα/β (p55) subunit (rat, UniProt O08949 1-377)
T4 construct: also called rat p55
T4 sequence (looked up): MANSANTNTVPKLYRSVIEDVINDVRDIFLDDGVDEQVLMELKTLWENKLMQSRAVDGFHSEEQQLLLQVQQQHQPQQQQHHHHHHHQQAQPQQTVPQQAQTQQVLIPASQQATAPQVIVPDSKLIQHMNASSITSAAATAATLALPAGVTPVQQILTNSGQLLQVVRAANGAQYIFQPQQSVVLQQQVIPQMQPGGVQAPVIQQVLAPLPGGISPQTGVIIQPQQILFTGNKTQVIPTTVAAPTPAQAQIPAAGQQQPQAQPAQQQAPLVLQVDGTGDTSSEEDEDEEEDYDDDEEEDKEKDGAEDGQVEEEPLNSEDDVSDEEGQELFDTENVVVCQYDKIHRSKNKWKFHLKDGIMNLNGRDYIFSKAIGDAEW

B1: recombinant histidine-tagged human TATA binding protein (TBP) (other, UniProt P20226 1-339, looked up)
chain: MDQNNSLPPYAQGLASPQGAMTPGIPIFSPMMPYGTGLTPQPIQNTNSLSILEEQQRQQQQQQQQQQQQQQQQQQQQQQQQQQQQQQQQQQQQQQAVAAAAVQQSTSQQATQGTSGQAPQLFHSQTLTTAPLPGTTPLYPSPMTPMTPITPATPASESSGIVPQLQNIVSTVNLGCKLDLKTIALRARNAEYNPKRFAAVIMRIREPRTTALIFSSGKMVCTGAKSEEQSRLAARKYARVVQKLGFPAKFLDFKIQNMVGSCDVKFPIRLEGLVLTHQQFSSYEPELFPGLIYRMIKPRIVLLIFVSGKVVLTGAKVRAEIYEAFENIYPILKGFRKTT
notes: In the mobility shift assay TBP stood together with a labelled AdML TATA oligonucleotide (-40 to -16); also called human TBP; not shown: histidine tag
B2: recombinant rat TFIIAγ (p12) subunit (other, UniProt O08950 1-109, looked up)
chain: MAYQLYRNTTLGNSLQESLDELIQSQQITPQLALQVLLQFDKAINSALAQRVRNRVNFRGSLNTYRFCDNVWTFVLNDVEFREVTELIKVDKVKIVACDGKNTGSNTTE
notes: also called rat p12; p12 (TFIIAγ)

How the values were obtained:
[1] = target: T1, ALF/γ: recombinant human ALF (p69) …; assay: electrophoretic mobility shift assay on labelled AdML TATA oligonucleotide, under conditions in which TBP alone does not bind DNA
Procedure: (§1) Mobility shift assays were performed using 10 fmol of a [γ-³²P] ATP kinase-labeled TATA-containing an oligonucleotide that spans nucleotides −40 to −16 of the Adenovirus Major Late (AdML) promoter. Binding reactions (25 μl final volume) were performed in 10 mM HEPES (pH 7.9), 2% (wt/vol) PEG-8000, 60 mM KCl, 5 mM DTT, 0.2 mM EDTA, 5 mM ammonium sulfate, 4 mM MgC1₂, and 8% glycerol. Recombinant rat p55 (30 ng; 29 nM), rat p12 (1.1 ug; 3.5 uM), human ALF (180 ng; 137 nM) and human TBP (125 ng; 133 nM) were added to reactions as indicated. Reactions were incubated for 30 minutes at room temperature, and complexes are separated on native 5% polyacrylamide gels containing 0.5×TBE and 5% glycerol. Competition experiments contain either cold AdML TATA or SP1 oligonucleotides, and antibody supershift reactions contain 2-4 μl of rabbit polyclonal antiserum raised against the 55 kD hTFIIAα/β polypeptide (3).
(§2) The activity of polypeptides was tested in electrophoretic mobility shift assays under conditions in which TATA-Binding Protein (TBP) alone is unable to bind DNA (FIG. 12B, lane 1). The presence of TFIIAα/β (p55) and TFIIAγ (p12) stabilized the TBP-DNA interaction via TFIIAα/β/γ-TBP-DNA complex formation (lane 2). Likewise, the recombinant ALF (p69) polypeptide, in conjunction with the TFIIAγ (p12) subunit, was able to form ALF/γ-TBP-DNA complexes (lane 5). […]

[2] = target: T2, TFIIAα/β/γ: recombinant rat TFIIAα/β …; assay: as above
Procedure: as §1, §2

[3] = target: T3, recombinant histidine-tagged human ALF …; assay: electrophoretic mobility shift assay; both subunits stand in one complex with TBP and DNA
Procedure: as §1, §2

[4] = target: T4, recombinant rat TFIIAα/β (p55) subunit; assay: as above
Procedure: as §1, §2

Binder	binding result [1]	binding result [2]	binding result [3]	binding result [4]
B1	binds	binds		
B2			binds	binds
